B1: un-labeled PACAP (15–31) [not stated] / MBP-PAC1R (25–140)-His6 [human] (parent complex)
chain 1: KQMAVKKYLAAVLGKRY
chain 2: CIFKKEQAMCLEKIQRANELMGFNDSSPGCPGMWDNITCWKPAHVGEMVLVSCPELFRIFNPDQDMGVVSRNCTEDGWSEPFPHYFDACGFDEYESETGDQDYYYLSVKALYTVGY

In the assay the parent is B1. Kind of assay: competitive AlphaScreen; Competing peptide 150uM; residual signal after competition, higher counts = weaker competition by the mutant peptide; read off a plot. A general note: In Alpha technology, singlet oxygen from a donor bead excites a nearby acceptor bead.
Turning to chain 1 KQMAVKAYLAAVLGKRY [chain 1 K7A], the response was roughly 2900 Photon Counts.
chain 1 KQMAVKKYLAAVLGKAY [chain 1 R16A]: the response was roughly 2700 Photon Counts.
For chain 1 KAMAVKKYLAAVLGKRY [chain 1 Q2A] the value was roughly 1900 Photon Counts.
For the variant chain 1 KQMAAKKYLAAVLGKRY [chain 1 V5A], the response was roughly 17000 Photon Counts.
For chain 1 AQMAVKKYLAAVLGKRY [chain 1 K1A], the response is roughly 1800 Photon Counts.
For the variant chain 1 KQMAVKKYLAAVAGKRY [chain 1 L13A], the response was roughly 26000 Photon Counts.
For chain 1 KQMAVAKYLAAVLGKRY [chain 1 K6A] the value was roughly 34000 Photon Counts; for chain 1 KQMAVKKALAAVLGKRY [chain 1 Y8A], roughly 1500 Photon Counts; for chain 1 KQMAVKKYLAAVLGKRA [chain 1 Y17A], roughly 2700 Photon Counts.
With chain 1 KQMAVKKYLAAALGKRY [chain 1 V12A], the response is roughly 6300 Photon Counts.
chain 1 KQAAVKKYLAAVLGKRY [chain 1 M3A]: the response was roughly 5100 Photon Counts.
For the variant chain 1 KQMAVKKYAAAVLGKRY [chain 1 L9A], the response was roughly 1100 Photon Counts.
Take chain 1 KQMAVKKYLAAVLGARY [chain 1 K15A]: the response is roughly 3800 Photon Counts.

Values taken from article PMC3098264, “Crystal Structure of the PAC1R Extracellular Domain Unifies a Consensus Fold for Hormone Recognition by Class B G-Protein Coupled Receptors” (PLoS ONE, 2011).
